PMC5715728

Biological target: major capsid protein (MCP) (human cytomegalovirus (HCMV) strain AD169) (UniProt P16729)
Test: cryo-EM structure

smallest capsid protein (SCP) (from UniProt Q7M6N6 1-75) (natural protein)
stoichiometry N: 1
